The values that follow come from publication PMC5525514 (Journal of biomolecular screening, 2011).

In general, IC50 refers to the point on the concentration scale where inhibition reaches its midpoint. Higher therefore signals lower potency. The Hill slope is a measure of the steepness of the concentration-response curve. A word on the Kd: it is the constant that tells how readily two partners part at equilibrium.

To fix the notation:
B1: 6x-His-tagged Gαo, not biotinylated (free Gαo) (natural protein, UniProt P59215 1-354, looked up)
chain: MGCTLSAEERAALERSKAIEKNLKEDGISAAKDVKLLLLGAGESGKSTIVKQMKIIHEDGFSGEDVKQYKPVVYSNTIQSLAAIVRAMDTLGVEYGDKERKADSKMVCDVVSRMEDTEPFSAELLSAMMRLWGDSGIQECFNRSREYQLNDSAKYYLDSLDRIGAADYQPTEQDILRTRVKTTGIVETHFTFKNLHFRLFDVGGQRSERKKWIHCFEDVTAIIFCVALSGYDQVLHEDETTNRMHESLMLFDSICNNKFFIDTSIILFLNKKDLFGEKIKKSPLTICFPEYPGSNTYEDAAAYIQTQFESKNRSPNKEIYCHMTCATDTNNIQVVFDAVTDIIIANNLRGCGLY
B2: free Gαo: un-biotinylated Gαo protein used as competitor in the AlphaScreen competition binding assay (protein)
chain: B1 chain
modifications: left off: His6, end not stated, state not stated
B3: GST-RGS17 (human RGS17 with an N-terminal glutathione-S-transferase and a C-terminal 6xHis tag) (domain or fragment, UniProt Q9UGC6 61-210, looked up)
chain: MESIQVLEECQNPTAEEVLSWSQNFDKMMKAPAGRNLFREFLRTEYSEENLLFWLACEDLKKEQNKKVIEEKARMIYEDYISILSPKEVSLDSRVREVINRNLLDPNPHMYEDAQLQIYTLMHRDSFPRFLNSQIYKSFVESTAGSSSES

For experiment [1], the target named is B3. Kind of experiment: AlphaScreen or HTRF. In general terms: In Alpha technology, singlet oxygen from a donor bead excites a nearby acceptor bead.
Another experiment addresses T1, Gαo–RGS17 interaction (Homo sapiens, UniProt Q9UGC6).
T1 sequence (Q9UGC6 61-210 limits assumed): B3 chain
Put plainly: AlphaScreen competition binding with free Gαo.

For experiment [2], the target named is biotinylated 6x-His-tagged Gαo (UniProt P59215 1-354, biotin (EZ-Link Biotin-BMCC, maleimide chemistry, labeled at a 10:1 biotin/protein ratio)). Put plainly: AlphaScreen or HTRF.

As for B1, 46 ± 1.1 nM corresponded to half-maximal inhibition in experiment [1] (IC50).
For B2, in the experiment with Gαo–RGS17 interaction, the Hill slope is listed as −1.3.
Consider B3, for which, in experiment [2], the dissociation constant Kd was determined as 29.2 ± 4.4 nM.
